Source: the supplement of paper PMC7877785
± gives the uncertainty stated by the source.

Assay: self-splicing fitness, log relative to wild type (ln ratio); higher = more splicing; Tetrahymena group I intron in knt gene, E. coli kanamycin selection, DiMSum; sequences stand for … in CUCUCU…GGAGGGAAAAGUUAUCAGGCAUGCACCUGGUAGCUAGUCUUUAAACCAAUAGAUUGCAUCGGUUUAAAAGGCAAGACCGUCAAAUUGCGGGAAAGGGGUCAACAGCCGUUCAGUACCAAGUCUCAGGGGAAACUUUGAGAUGGCCUUGCAAAGGGUAUGGUAAUAAGCUGACGGACAUGGUCCUAACCACGCAGCCAAGUCCUAAGUCAACAGAUCUUCUGUUGAUAUGGAUGCAGUUCACAGACUAAAUGUCGGUCGGGGAAGAUGUAUUCUUCUCAUAAGAUAUAGUCGGACCUCUCCUUAAUGGGAGCUAGCGGAUGAAGUGAUGCAACACUGGAGCCGCUGGGAACUAAUUUGUAUGCGAAAGUAUAUUGAUUAGUUUUGGAGUACUCGUGGUCG
Procedure, shortened: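 The eight P1ex-region nucleotides of an intron in the knt kanamycin-resistance gene on pET-22b(+) were all randomised and the library put into E. coli BL21(DE3). Six replicate transformations were grown overnight at 37°C or 30°C on LB agar with or without 25 μg/mL kanamycin, together with 100 μg/mL carbenicillin, 50 μM IPTG and 0.2% rhamnose. Colonies were pooled and amplicon-sequenced on an Illumina HiSeq 2500. Fitness from DiMSum is the error-weighted combination of wild-type-normalised replicate fold changes, kanamycin over none.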

| Sequence | self-splicing fitness (ln) (30 °C) | self-splicing fitness (ln) (37 °C) |
| --- | --- | --- |
| AAAUAGCAAUAUUACGGUAC | -3.61 ± 0.25 | -2.6 ± 0.3 |
| AAAUAGCAAUAUUACGGUUC | -1.21 ± 0.11 | -0.851 ± 0.16 |
| AAAUAGCAAUAUUACGUAUC | -3.12 ± 0.28 | -1.51 ± 0.19 |
| AAAUAGCAAUAUUACGUAUG | -2.64 ± 0.12 | -2.08 ± 0.13 |
| AAAUAGCAAUAUUACGUCUA | -0.412 ± 0.077 | 0.205 ± 0.084 |
| AAAUAGCAAUAUUACGUCUU | 0.225 ± 0.074 | 0.263 ± 0.092 |
| AAAUAGCAAUAUUACGUGAA | -3.08 ± 0.12 | -0.845 ± 0.097 |
| AAAUAGCAAUAUUACGUGGA | -3.16 ± 0.13 | -2.11 ± 0.099 |
| AAAUAGCAAUAUUACGUUGC | -2.63 ± 0.23 | -2.98 ± 0.3 |
| AACAAGCAAUAUUACGAAGC | -3.15 ± 0.27 | -2.83 ± 0.38 |
| AACAAGCAAUAUUACGACCC | -0.136 ± 0.22 | 0.116 ± 0.24 |
| AACAAGCAAUAUUACGACGG | -2.3 ± 0.14 | -1.93 ± 0.12 |
| AACAAGCAAUAUUACGAGGC | -3.07 ± 0.15 | -3.27 ± 0.28 |
| AACAAGCAAUAUUACGAUAA | -1.62 ± 0.084 | -1.15 ± 0.11 |
| AACAAGCAAUAUUACGAUGC | -2.67 ± 0.14 | -0.922 ± 0.11 |
| AACAAGCAAUAUUACGCACA | 0.157 ± 0.071 | -0.163 ± 0.094 |
| AACAAGCAAUAUUACGCACC | -0.717 ± 0.097 | -0.435 ± 0.14 |
| AACAAGCAAUAUUACGCCCU | 0.18 ± 0.062 | 0.0436 ± 0.08 |
| AACAAGCAAUAUUACGCCUA | -0.12 ± 0.059 | 0.231 ± 0.065 |
| AACAAGCAAUAUUACGCGAU | -3.61 ± 0.17 | -1.57 ± 0.12 |
| AACAAGCAAUAUUACGCGGG | -3.55 ± 0.14 | -2.46 ± 0.15 |
| AACAAGCAAUAUUACGGAGG | -3.19 ± 0.19 | -0.738 ± 0.15 |
| AACAAGCAAUAUUACGGCUG | -0.419 ± 0.059 | -0.225 ± 0.086 |
| AACAAGCAAUAUUACGGGAG | -2.51 ± 0.093 | -1.96 ± 0.1 |

| Sequence | self-splicing fitness (ln) (30 °C) | self-splicing fitness (ln) (37 °C) |
| --- | --- | --- |
| AACAAGCAAUAUUACGGGCA | -0.586 ± 0.058 | -0.0288 ± 0.066 |
| AACAAGCAAUAUUACGGGCC | -2.99 ± 0.25 | 0.104 ± 0.19 |
| AACAAGCAAUAUUACGGUUU | -2.73 ± 0.1 | -1.08 ± 0.086 |
| AACAAGCAAUAUUACGUCGA | -1.27 ± 0.087 | -0.532 ± 0.092 |
| AACAAGCAAUAUUACGUGGU | -3.38 ± 0.12 | -1.57 ± 0.1 |
| AACAAGCAAUAUUACGUUGA | -3.31 ± 0.13 | -1.95 ± 0.1 |
| AACAAGCAAUAUUACGUUGU | -2.17 ± 0.074 | -2.39 ± 0.13 |
| AACAAGCAAUAUUACGUUUA | -2.45 ± 0.09 | -1.07 ± 0.074 |
| AACAAGCAAUAUUACGUUUU | -3.22 ± 0.08 | -1.03 ± 0.067 |
| AACCAGCAAUAUUACGACAC | -1.07 ± 0.08 | -0.426 ± 0.1 |
| AACCAGCAAUAUUACGACCC | -0.941 ± 0.1 | 0.421 ± 0.13 |
| AACCAGCAAUAUUACGACCU | -0.404 ± 0.093 | -0.0868 ± 0.1 |
| AACCAGCAAUAUUACGAGGU | -3.14 ± 0.16 | -2.53 ± 0.16 |
| AACCAGCAAUAUUACGAUAC | -2.38 ± 0.084 | -1.39 ± 0.11 |
| AACCAGCAAUAUUACGAUCC | -0.433 ± 0.078 | -0.358 ± 0.12 |
| AACCAGCAAUAUUACGCAAA | -0.829 ± 0.1 | -0.805 ± 0.11 |
| AACCAGCAAUAUUACGCACG | -0.891 ± 0.055 | -0.215 ± 0.078 |
| AACCAGCAAUAUUACGCGGU | -4.38 ± 0.19 | -2.43 ± 0.15 |
| AACCAGCAAUAUUACGGAAG | -1.22 ± 0.066 | 0.117 ± 0.089 |
| AACCAGCAAUAUUACGGAGU | -1.66 ± 0.048 | -0.881 ± 0.064 |
| AACCAGCAAUAUUACGGCAU | 0.127 ± 0.053 | 0.376 ± 0.067 |
| AACCAGCAAUAUUACGGCCU | 0.12 ± 0.075 | -0.853 ± 0.082 |
| AACCAGCAAUAUUACGGUAU | -2 ± 0.071 | -0.457 ± 0.08 |
| AACCAGCAAUAUUACGUCGA | -0.87 ± 0.071 | -0.757 ± 0.07 |

| Sequence | self-splicing fitness (ln) (30 °C) | self-splicing fitness (ln) (37 °C) |
| --- | --- | --- |
| AACCAGCAAUAUUACGUGCA | -0.671 ± 0.055 | -0.0717 ± 0.072 |
| AACCAGCAAUAUUACGUUAU | -2.18 ± 0.055 | -0.941 ± 0.058 |
| AACGAGCAAUAUUACGAAGU | -2.75 ± 0.17 | -2.86 ± 0.31 |
| AACGAGCAAUAUUACGAGAU | -4.25 ± 0.36 | -3.02 ± 0.3 |
| AACGAGCAAUAUUACGAUGA | -3.91 ± 0.46 | -2.08 ± 0.22 |
| AACGAGCAAUAUUACGAUUG | -4.09 ± 0.23 | -1.56 ± 0.23 |
| AACGAGCAAUAUUACGCCUC | -2.71 ± 0.28 | -1.53 ± 0.17 |
| AACGAGCAAUAUUACGCCUU | -3.47 ± 0.16 | -1.8 ± 0.11 |
| AACGAGCAAUAUUACGCGAU | -3.04 ± 0.26 | -1.99 ± 0.3 |
| AACGAGCAAUAUUACGCGCG | -1.81 ± 0.28 | -1.75 ± 0.28 |
| AACGAGCAAUAUUACGGAAA | -3.63 ± 0.23 | -2.65 ± 0.24 |
| AACGAGCAAUAUUACGGACA | -2.38 ± 0.12 | -1.57 ± 0.11 |
| AACGAGCAAUAUUACGGAUA | -2.98 ± 0.22 | -1.85 ± 0.29 |
| AACGAGCAAUAUUACGGGUA | -2.96 ± 0.17 | -0.912 ± 0.11 |
| AACGAGCAAUAUUACGGUCG | -2.14 ± 0.13 | -1.02 ± 0.14 |
| AACGAGCAAUAUUACGUACU | -1.04 ± 0.067 | -1.04 ± 0.079 |
| AACGAGCAAUAUUACGUCCA | -2.92 ± 0.3 | -1.92 ± 0.21 |
| AACGAGCAAUAUUACGUGGA | -2.62 ± 0.33 | -2.15 ± 0.19 |
| AACGAGCAAUAUUACGUGGU | -4.57 ± 0.27 | -2.94 ± 0.17 |
| AACGAGCAAUAUUACGUUUA | -3.12 ± 0.2 | -2.64 ± 0.21 |
| AACUAGCAAUAUUACGAAAA | -1.53 ± 0.16 | -1.75 ± 0.17 |
| AACUAGCAAUAUUACGAAAG | -2.79 ± 0.15 | -1.61 ± 0.18 |
| AACUAGCAAUAUUACGAACG | -0.824 ± 0.083 | -0.339 ± 0.12 |
| AACUAGCAAUAUUACGAGCA | -1.68 ± 0.12 | -0.209 ± 0.11 |

| Sequence | self-splicing fitness (ln) (30 °C) | self-splicing fitness (ln) (37 °C) |
| --- | --- | --- |
| AACUAGCAAUAUUACGAUGC | -1.25 ± 0.12 | -2.06 ± 0.25 |
| AACUAGCAAUAUUACGAUUA | -0.307 ± 0.087 | -0.0303 ± 0.11 |
| AACUAGCAAUAUUACGAUUU | -0.0161 ± 0.059 | -0.157 ± 0.075 |
| AACUAGCAAUAUUACGCAGA | -3.43 ± 0.37 | -0.413 ± 0.15 |
| AACUAGCAAUAUUACGCCGA | -1.74 ± 0.18 | -0.583 ± 0.18 |
| AACUAGCAAUAUUACGCGAU | -2.64 ± 0.15 | -2.22 ± 0.17 |
| AACUAGCAAUAUUACGCGGG | -2.78 ± 0.15 | -2.37 ± 0.19 |
| AACUAGCAAUAUUACGCUUA | -0.632 ± 0.087 | -0.749 ± 0.11 |
| AACUAGCAAUAUUACGGACA | -0.804 ± 0.15 | -0.48 ± 0.13 |
| AACUAGCAAUAUUACGGAUA | -2.79 ± 0.25 | -1.2 ± 0.23 |
| AACUAGCAAUAUUACGGCAA | -1.01 ± 0.076 | -0.905 ± 0.09 |
| AACUAGCAAUAUUACGGUAG | -2.06 ± 0.11 | 0.0456 ± 0.12 |
| AACUAGCAAUAUUACGGUGU | -1.77 ± 0.083 | -0.956 ± 0.099 |
| AACUAGCAAUAUUACGUAAG | -1.22 ± 0.084 | -1.65 ± 0.11 |
| AACUAGCAAUAUUACGUCAG | -3.51 ± 0.18 | -1.57 ± 0.15 |
| AACUAGCAAUAUUACGUCCC | -0.0622 ± 0.15 | 0.182 ± 0.16 |
| AACUAGCAAUAUUACGUCCG | -1.74 ± 0.11 | -0.228 ± 0.13 |
| AAGAAGCAAUAUUACGAACA | -1.06 ± 0.16 | -0.0339 ± 0.16 |
| AAGAAGCAAUAUUACGACAA | -0.745 ± 0.098 | -0.224 ± 0.12 |
| AAGAAGCAAUAUUACGAGAA | -2.07 ± 0.26 | -1.87 ± 0.19 |
| AAGAAGCAAUAUUACGAUAA | -1.11 ± 0.12 | -1.07 ± 0.15 |
| AAGAAGCAAUAUUACGAUGC | -2.61 ± 0.13 | -1.76 ± 0.17 |
